In paper PMC3767815, “A Novel α-L-Arabinofuranosidase of Family 43 Glycoside Hydrolase (Ct43Araf) from Clostridium thermocellum” (PLoS ONE, 2013):

B1: Ct43Araf (Acetivibrio thermocellus ATCC 27405) (protein)
chain: AADYPIFSQRFTADPAAVVYNGRLYIYCSHDSDATPGQSTYNIPDITCISTDDLKNWTDHGEVFNAKRDSRWASVSWAPSIVYRNNKFYLYYGNGGNGIGVAVSDSPTGPFKDPLPGPLVSWNTPGVQPAQNMWLFDPGVFVDDDGQAYMYFGGNGQNNIRVIKLGNDMISTVGSAMTMSAPRFFEAAYMHKYNGKYYFSYASDFSQGASKIEYMMSDKPTTGFQYKGVILPQPPDNYSNNNHHAIVEYKGNWYVVYHNRTVAKQRGLDPVYQRNVCIDQMFYNADGTIKQVVPTVDGLKQLKYVDPYTKNLAVTMHKESGIETEECSEGGRNVAFIENGDWIQVKGVDFGNVGPTSFEARVASATNGGNIEIRLDSPTGTLIGTCKVEGTGDWQKWVTKTCSVSKVTGVHDLFFRFTGGSGYLFNFSWWKFNSDATPTPTPPPQPSTVPVTERSAFSKIEVEDFNDIKSSTIQKIGTPNGGSGIGYIENGDWLAYKNIDFGNGATTFKALVASTLSPNIELRLDSPTGTLIGTLKVAATGGFNAYEEQSCNISKVTGKHDLYLVFSGAVNIDWFTFGGSSGII
notes: CtGH43-CtCBM6A-CtCBM6B; His6-tagged, pET-21a(+), E. coli BL21(DE3); 63 kDa; gene range printed 1545911 to 1547651; modules 903, 405 and 402 bp; forward primer starts at AADYP
B2: CtGH43 (Acetivibrio thermocellus ATCC 27405) (protein)
chain: AADYPIFSQRFTADPAAVVYNGRLYIYCSHDSDATPGQSTYNIPDITCISTDDLKNWTDHGEVFNAKRDSRWASVSWAPSIVYRNNKFYLYYGNGGNGIGVAVSDSPTGPFKDPLPGPLVSWNTPGVQPAQNMWLFDPGVFVDDDGQAYMYFGGNGQNNIRVIKLGNDMISTVGSAMTMSAPRFFEAAYMHKYNGKYYFSYASDFSQGASKIEYMMSDKPTTGFQYKGVILPQPPDNYSNNNHHAIVEYKGNWYVVYHNRTVAKQRGLDPVYQRNVCIDQMFYNADGTIKQVVPTVDGLKQ
notes: truncated: N-terminal GH43 catalytic module only (903 bp), both CBM6 removed; His6-tagged, pET-28a(+), E. coli BL21(DE3) pLysS; 34 kDa

Key:
[1] = substrate: O=[N+]([O-])c1ccc(O[C@@H]2OC[C@H](O)[C@H](O)[C@H]2O)cc1; assay: purified protein; type: biochemical, Acetivibrio thermocellus; conditions: 50°C, 20 mM sodium phosphate pH 5.7 (table note; methods print 50 mM sodium phosphate pH 6.0), substrate 20–500 µM
[2] = substrate: O=[N+]([O-])c1ccc(O[C@@H]2O[C@@H](CO)[C@H](O)[C@H]2O)cc1; assay: purified protein; type: biochemical, Acetivibrio thermocellus; conditions: 50°C, 20 mM sodium phosphate pH 5.7 (table note; methods print 50 mM sodium phosphate pH 6.0), substrate 20–500 µM

Protein	Km [1]	kcat [1]	Km [2]	kcat [2]
B1	0.093 ± 0.003 mg/mL	3.5 ± 0.0783 s⁻¹	0.05 ± 0.002 mg/mL	4.717 ± 0.0333 s⁻¹
B2	0.097 ± 0.004 mg/mL	3.533 ± 0.0333 s⁻¹	0.04 ± 0.004 mg/mL	4.783 ± 0.0167 s⁻¹
